In patent US11965039B2, “Compstatin analogues and their medical uses” (priority 2018, dated 2024):
Starred links: 1 amine or outer side, 2 acyl side, 3 side chain; linkers in the order of their positions; H or OH if unused. Positions of bridges follow the written chain, without caps; N, C: chain ends. Non-standard residues stand in square brackets, D forms with d. Groups on a side chain read outwards from the residue. *: point of attachment. Trp(1-Me) = Cn1cc(C[C@H](N)C(=O)O)c2ccccc21; C18 diacid = O=C(O)CCCCCCCCCCCCCCCCC(=O)*; C16 diacid = O=C(O)CCCCCCCCCCCCCCC(=O)*; γGlu = O=C(O)[C@H](CCC(=O)[*:2])N[*:1]; AEEA = NCCOCCOCC(=O)O; Sar = CNCC(=O)O

Columns and labels:
[1] = target: T1, Human C3 (Complement tech cat #A113c) (human, UniProt P01024 23-1663); assay: SPR (Biacore T200), human C3 immobilised, peptide injected, 1:1 fit
T1 construct: Purified protein immobilised by amine coupling in the SPR assay; in the haemolysis assay it is the C3 of diluted human serum; Native C3 consists of a beta and an alpha chain cut from one precursor; also called C3 protein
Protocol: Surface plasmon resonance (SPR) was used to characterize peptides with respect to their binding affinity (Kd) for C3. Human C3 (Complement tech cat #A113c) was immobilised on individual flow cells of CM5 sensor chips (GE Healthcare) using standard amine coupling to a density of approximately 3000 resonance units (RU) in a buffer consisting of 10 mM phosphate pH 7.4, 150 mM NaCl, 0.05% Tween20.
For interaction experiments a multi-cycle experiment approach was used and performed using a BiacoreT200™ instrument (GE Healthcare) at 25° C. Peptides were injected in increasing concentration series (6-8 different concentrations) for 60-120 sat a flow rate of 30 µL/min in a buffer consisting of 10 mM Tris buffer at pH 7.4, with 150 mM NaCl and 0.05% Tween20. This was followed by a dissociation period for up to 10 min. The C3 surface was regenerated between runs by a 45 s injection of 3 M MgCl_2.

[2] = target: T1, Human C3 (Complement tech cat #A113c); assay: cell-based or functional assay

T1 sequence (P01024 23-1663 limits assumed): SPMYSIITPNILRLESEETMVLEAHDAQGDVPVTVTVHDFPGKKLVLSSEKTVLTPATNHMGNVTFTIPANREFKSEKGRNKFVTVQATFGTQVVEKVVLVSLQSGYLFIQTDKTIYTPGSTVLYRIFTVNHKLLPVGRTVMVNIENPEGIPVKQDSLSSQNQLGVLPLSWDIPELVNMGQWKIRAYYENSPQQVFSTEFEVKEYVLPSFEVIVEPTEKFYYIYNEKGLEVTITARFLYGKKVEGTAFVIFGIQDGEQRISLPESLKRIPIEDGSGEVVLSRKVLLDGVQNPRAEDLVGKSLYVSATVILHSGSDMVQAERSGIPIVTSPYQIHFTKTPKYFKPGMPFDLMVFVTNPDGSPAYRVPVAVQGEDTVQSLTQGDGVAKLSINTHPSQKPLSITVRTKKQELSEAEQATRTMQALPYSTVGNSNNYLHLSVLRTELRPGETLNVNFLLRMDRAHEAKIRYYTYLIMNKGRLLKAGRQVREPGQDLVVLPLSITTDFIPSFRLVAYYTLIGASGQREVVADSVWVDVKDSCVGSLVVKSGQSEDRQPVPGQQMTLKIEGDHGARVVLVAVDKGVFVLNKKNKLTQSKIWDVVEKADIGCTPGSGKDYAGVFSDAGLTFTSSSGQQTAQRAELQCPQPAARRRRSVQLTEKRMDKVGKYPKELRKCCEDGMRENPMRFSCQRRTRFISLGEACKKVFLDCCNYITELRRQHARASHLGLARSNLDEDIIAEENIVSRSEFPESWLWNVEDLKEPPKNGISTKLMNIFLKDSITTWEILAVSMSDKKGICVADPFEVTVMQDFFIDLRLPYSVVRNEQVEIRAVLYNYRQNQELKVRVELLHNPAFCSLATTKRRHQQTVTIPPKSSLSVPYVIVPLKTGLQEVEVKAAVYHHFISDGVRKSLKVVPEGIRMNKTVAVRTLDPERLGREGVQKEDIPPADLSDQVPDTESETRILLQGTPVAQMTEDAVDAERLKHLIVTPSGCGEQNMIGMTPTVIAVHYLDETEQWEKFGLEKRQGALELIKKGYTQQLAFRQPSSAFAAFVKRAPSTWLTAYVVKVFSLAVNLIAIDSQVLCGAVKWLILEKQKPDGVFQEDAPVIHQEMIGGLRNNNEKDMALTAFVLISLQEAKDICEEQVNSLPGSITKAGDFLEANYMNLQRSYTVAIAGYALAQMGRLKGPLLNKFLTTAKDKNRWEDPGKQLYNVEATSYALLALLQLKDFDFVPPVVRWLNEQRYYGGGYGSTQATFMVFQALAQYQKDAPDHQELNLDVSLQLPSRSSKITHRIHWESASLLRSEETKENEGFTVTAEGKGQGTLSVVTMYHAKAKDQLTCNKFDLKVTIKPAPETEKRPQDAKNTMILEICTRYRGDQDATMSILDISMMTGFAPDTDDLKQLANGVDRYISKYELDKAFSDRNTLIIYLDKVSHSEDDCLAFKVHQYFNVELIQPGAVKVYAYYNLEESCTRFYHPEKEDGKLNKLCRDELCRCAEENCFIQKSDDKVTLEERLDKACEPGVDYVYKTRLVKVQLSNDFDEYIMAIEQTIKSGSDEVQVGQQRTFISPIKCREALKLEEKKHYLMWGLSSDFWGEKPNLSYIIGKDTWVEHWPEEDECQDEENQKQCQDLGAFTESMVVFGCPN

Binder | Kd [1] [nM] | inhibition of hemolysis IC50 [2] [nM]
Ac-ICI[Trp(1-Me)]QDWGEHRCT-NH2 (disulfide 2-12; SMILES CC[C@H](C)[C@H](NC(C)=O)C(=O)N[C@H]1CSSC[C@@H](C(=O)N[C@H](C(N)=O)[C@@H](C)O)NC(=O)[C@H](CCCNC(=N)N)NC(=O)[C@H](Cc2c[nH]cn2)NC(=O)[C@H](CCC(=O)O)NC(=O)CNC(=O)[C@H](Cc2c[nH]c3ccccc23)NC(=O)[C@H](CC(=O)O)NC(=O)[C@H](CCC(N)=O)NC(=O)[C@H](Cc2cn(C)c3ccccc23)NC(=O)[C@H]([C@@H](C)CC)NC1=O) [Compound 4] | 1.5 | < 100
Ac-FCI[Trp(1-Me)]QDWGEHRCTGAESK([AEEA-AEEA-γGlu-C16 diacid])-NH2 (disulfide 2-12; SMILES CC[C@H](C)[C@@H]1NC(=O)[C@@H](NC(=O)[C@H](Cc2ccccc2)NC(C)=O)CSSC[C@@H](C(=O)N[C@H](C(=O)NCC(=O)N[C@@H](C)C(=O)N[C@@H](CCC(=O)O)C(=O)N[C@@H](CO)C(=O)N[C@@H](CCCCNC(=O)COCCOCCNC(=O)COCCOCCNC(=O)CC[C@H](NC(=O)CCCCCCCCCCCCCCC(=O)O)C(=O)O)C(N)=O)[C@@H](C)O)NC(=O)[C@H](CCCNC(=N)N)NC(=O)[C@H](Cc2c[nH]cn2)NC(=O)[C@H](CCC(=O)O)NC(=O)CNC(=O)[C@H](Cc2c[nH]c3ccccc23)NC(=O)[C@H](CC(=O)O)NC(=O)[C@H](CCC(N)=O)NC(=O)[C@H](Cc2cn(C)c3ccccc23)NC1=O) [Compound 102] | 1.7 | < 100
Ac-EGSAYCI[Trp(1-Me)]QDWGEHRC[Sar]EGK([AEEA-AEEA-γGlu-C16 diacid])-NH2 (disulfide 6-16; SMILES CC[C@H](C)[C@@H]1NC(=O)[C@@H](NC(=O)[C@H](Cc2ccc(O)cc2)NC(=O)[C@H](C)NC(=O)[C@H](CO)NC(=O)CNC(=O)[C@H](CCC(=O)O)NC(C)=O)CSSC[C@@H](C(=O)N(C)CC(=O)N[C@@H](CCC(=O)O)C(=O)NCC(=O)N[C@@H](CCCCNC(=O)COCCOCCNC(=O)COCCOCCNC(=O)CC[C@H](NC(=O)CCCCCCCCCCCCCCC(=O)O)C(=O)O)C(N)=O)NC(=O)[C@H](CCCNC(=N)N)NC(=O)[C@H](Cc2c[nH]cn2)NC(=O)[C@H](CCC(=O)O)NC(=O)CNC(=O)[C@H](Cc2c[nH]c3ccccc23)NC(=O)[C@H](CC(=O)O)NC(=O)[C@H](CCC(N)=O)NC(=O)[C@H](Cc2cn(C)c3ccccc23)NC1=O) [Compound 104] | 34 | < 100
Ac-SAYCI[Trp(1-Me)]QDWGEHRC[Sar]EK([γGlu-Gly-γGlu-C18 diacid])-NH2 (disulfide 4-14; SMILES CC[C@H](C)[C@@H]1NC(=O)[C@@H](NC(=O)[C@H](Cc2ccc(O)cc2)NC(=O)[C@H](C)NC(=O)[C@H](CO)NC(C)=O)CSSC[C@@H](C(=O)N(C)CC(=O)N[C@@H](CCC(=O)O)C(=O)N[C@@H](CCCCNC(=O)CC[C@H](NC(=O)CNC(=O)CC[C@H](NC(=O)CCCCCCCCCCCCCCCCC(=O)O)C(=O)O)C(=O)O)C(N)=O)NC(=O)[C@H](CCCNC(=N)N)NC(=O)[C@H](Cc2c[nH]cn2)NC(=O)[C@H](CCC(=O)O)NC(=O)CNC(=O)[C@H](Cc2c[nH]c3ccccc23)NC(=O)[C@H](CC(=O)O)NC(=O)[C@H](CCC(N)=O)NC(=O)[C@H](Cc2cn(C)c3ccccc23)NC1=O) [Compound 106] | 5.4 | < 250
Ac-EGSAFCI[Trp(1-Me)]QDWGEHRC[Sar]E-NH2 (disulfide 6-16; SMILES CC[C@H](C)[C@@H]1NC(=O)[C@@H](NC(=O)[C@H](Cc2ccccc2)NC(=O)[C@H](C)NC(=O)[C@H](CO)NC(=O)CNC(=O)[C@H](CCC(=O)O)NC(C)=O)CSSC[C@@H](C(=O)N(C)CC(=O)N[C@@H](CCC(=O)O)C(N)=O)NC(=O)[C@H](CCCNC(=N)N)NC(=O)[C@H](Cc2c[nH]cn2)NC(=O)[C@H](CCC(=O)O)NC(=O)CNC(=O)[C@H](Cc2c[nH]c3ccccc23)NC(=O)[C@H](CC(=O)O)NC(=O)[C@H](CCC(N)=O)NC(=O)[C@H](Cc2cn(C)c3ccccc23)NC1=O) [Compound 53] | 1.4 | < 100
Ac-GE[Sar]CI[Trp(1-Me)]QDWGEHRCTEA-NH2 (disulfide 4-14; SMILES CC[C@H](C)[C@@H]1NC(=O)[C@@H](NC(=O)CN(C)C(=O)[C@H](CCC(=O)O)NC(=O)CNC(C)=O)CSSC[C@@H](C(=O)N[C@H](C(=O)N[C@@H](CCC(=O)O)C(=O)N[C@@H](C)C(N)=O)[C@@H](C)O)NC(=O)[C@H](CCCNC(=N)N)NC(=O)[C@H](Cc2c[nH]cn2)NC(=O)[C@H](CCC(=O)O)NC(=O)CNC(=O)[C@H](Cc2c[nH]c3ccccc23)NC(=O)[C@H](CC(=O)O)NC(=O)[C@H](CCC(N)=O)NC(=O)[C@H](Cc2cn(C)c3ccccc23)NC1=O) [Compound 88] | – | < 100
Ac-SE[Sar]CI[Trp(1-Me)]QEW[Sar]EHRCTEA-NH2 (disulfide 4-14; SMILES CC[C@H](C)[C@@H]1NC(=O)[C@@H](NC(=O)CN(C)C(=O)[C@H](CCC(=O)O)NC(=O)[C@H](CO)NC(C)=O)CSSC[C@@H](C(=O)N[C@H](C(=O)N[C@@H](CCC(=O)O)C(=O)N[C@@H](C)C(N)=O)[C@@H](C)O)NC(=O)[C@H](CCCNC(=N)N)NC(=O)[C@H](Cc2c[nH]cn2)NC(=O)[C@H](CCC(=O)O)NC(=O)CN(C)C(=O)[C@H](Cc2c[nH]c3ccccc23)NC(=O)[C@H](CCC(=O)O)NC(=O)[C@H](CCC(N)=O)NC(=O)[C@H](Cc2cn(C)c3ccccc23)NC1=O) [Compound 89] | – | < 100
Ac-SE[Sar]CI[Trp(1-Me)]QEWGEHRC[Sar]EA-NH2 (disulfide 4-14; SMILES CC[C@H](C)[C@@H]1NC(=O)[C@@H](NC(=O)CN(C)C(=O)[C@H](CCC(=O)O)NC(=O)[C@H](CO)NC(C)=O)CSSC[C@@H](C(=O)N(C)CC(=O)N[C@@H](CCC(=O)O)C(=O)N[C@@H](C)C(N)=O)NC(=O)[C@H](CCCNC(=N)N)NC(=O)[C@H](Cc2c[nH]cn2)NC(=O)[C@H](CCC(=O)O)NC(=O)CNC(=O)[C@H](Cc2c[nH]c3ccccc23)NC(=O)[C@H](CCC(=O)O)NC(=O)[C@H](CCC(N)=O)NC(=O)[C@H](Cc2cn(C)c3ccccc23)NC1=O) [Compound 90] | – | < 250
H-[dY][Sar]CI[Trp(1-Me)]QDWGEHRCTEA-NH2 (disulfide 3-13; SMILES CC[C@H](C)[C@@H]1NC(=O)[C@@H](NC(=O)CN(C)C(=O)[C@H](N)Cc2ccc(O)cc2)CSSC[C@@H](C(=O)N[C@H](C(=O)N[C@@H](CCC(=O)O)C(=O)N[C@@H](C)C(N)=O)[C@@H](C)O)NC(=O)[C@H](CCCNC(=N)N)NC(=O)[C@H](Cc2c[nH]cn2)NC(=O)[C@H](CCC(=O)O)NC(=O)CNC(=O)[C@H](Cc2c[nH]c3ccccc23)NC(=O)[C@H](CC(=O)O)NC(=O)[C@H](CCC(N)=O)NC(=O)[C@H](Cc2cn(C)c3ccccc23)NC1=O) [Compound 91] | – | < 100
Ac-ICIWQDWGEHRCTEGK([γGlu-C16 diacid])-NH2 (disulfide 2-12; SMILES CC[C@H](C)[C@H](NC(C)=O)C(=O)N[C@H]1CSSC[C@@H](C(=O)N[C@H](C(=O)N[C@@H](CCC(=O)O)C(=O)NCC(=O)N[C@@H](CCCCNC(=O)CC[C@H](NC(=O)CCCCCCCCCCCCCCC(=O)O)C(=O)O)C(N)=O)[C@@H](C)O)NC(=O)[C@H](CCCNC(=N)N)NC(=O)[C@H](Cc2c[nH]cn2)NC(=O)[C@H](CCC(=O)O)NC(=O)CNC(=O)[C@H](Cc2c[nH]c3ccccc23)NC(=O)[C@H](CC(=O)O)NC(=O)[C@H](CCC(N)=O)NC(=O)[C@H](Cc2c[nH]c3ccccc23)NC(=O)[C@H]([C@@H](C)CC)NC1=O) [Compound 92] | – | < 1000
Ac-ICIWQDWGEHRCTEGK([AEEA-AEEA-γGlu-C16 diacid])-NH2 (disulfide 2-12; SMILES CC[C@H](C)[C@H](NC(C)=O)C(=O)N[C@H]1CSSC[C@@H](C(=O)N[C@H](C(=O)N[C@@H](CCC(=O)O)C(=O)NCC(=O)N[C@@H](CCCCNC(=O)COCCOCCNC(=O)COCCOCCNC(=O)CC[C@H](NC(=O)CCCCCCCCCCCCCCC(=O)O)C(=O)O)C(N)=O)[C@@H](C)O)NC(=O)[C@H](CCCNC(=N)N)NC(=O)[C@H](Cc2c[nH]cn2)NC(=O)[C@H](CCC(=O)O)NC(=O)CNC(=O)[C@H](Cc2c[nH]c3ccccc23)NC(=O)[C@H](CC(=O)O)NC(=O)[C@H](CCC(N)=O)NC(=O)[C@H](Cc2c[nH]c3ccccc23)NC(=O)[C@H]([C@@H](C)CC)NC1=O) [Compound 93] | – | < 500
